# Data reported in patent US20220073935A1.
# Numbering of substitutions follows the chain as printed. Names may count otherwise.
# B1: LB-Rb (379-928) A488V (protein, part only; not given: Large BiT luciferase tag, human, UniProt P06400 379-928, looked up, part only)
# chain, part: MNTIQQLMMILNSASDQPSENLISYFNNCTVNPKESILKRVKDIGYIFKEKFAKAVGQGCVEIGSQRYKLGVRLYYRVMESMLKSEEERLSIQNFSKLLNDNIFHMSLLVCALEVVMATYSRSTSQNLDSGTDLSFPWILNVLNLKAFDFYKVIESFIKAEGNLTREMIKHLERCEHRIMESLAWLSDSPLFDLIKQSKDREGPTDHLESACPLNLPLQNNHTAADMYLSPVRSPKKKGSTTRVNSTANAETQATSAFQTQKPLKSTSLSLFYKKVYRLAYLRLNTLCERLLSEHPELEHIIWTLFQHTLQNEYELMRDRHLDQIMMCSMYGICKVKNIDLKFKIIVTAYKDLPHAVQETFKRVLIKEEEYDSIIVFYNSVFMQRLKTNILQYASTRPPTLSPIPHIPRSPYKFPSSPLRIPGGNIYISPLKSPYKISEGLPTPTKMTPRSRILVSIGESFGTSEKFQKINQMVCNSDRVLKRSAEGSNPPKPLKKLRFDIEGSDEADGSKHLPGESKFQQKLAEMTSTRTRMQKQKMNDSMDTSNKEEK
# B2: LB-Rb (379-928) R656W (protein, part only; not given: Large BiT luciferase tag, human, UniProt P06400 379-928, looked up, part only)
# chain, part: B1 chain, part with V110A, R278W
# B3: LB-Rb (379-928) R698W (protein, part only; not given: Large BiT luciferase tag, human, UniProt P06400 379-928, looked up, part only)
# chain, part: B1 chain, part with V110A, R320W
# B4: LB-Rb (379-928) C706F (protein, part only; not given: Large BiT luciferase tag, human, UniProt P06400 379-928, looked up, part only)
# chain, part: B1 chain, part with V110A, C328F
# B5: LB-Rb (379-928) E440K (protein, part only; not given: Large BiT luciferase tag, human, UniProt P06400 379-928, looked up, part only)
# chain, part: B1 chain, part with E62K, V110A
# B6: LB-Rb (379-928) L665R (protein, part only; not given: Large BiT luciferase tag, human, UniProt P06400 379-928, looked up, part only)
# chain, part: B1 chain, part with V110A, L287R
# B7: LB-Rb (379-928) R621S (protein, part only; not given: Large BiT luciferase tag, human, UniProt P06400 379-928, looked up, part only)
# chain, part: B1 chain, part with V110A, R243S
# B8: LB-Rb (379-928) V654M (protein, part only; not given: Large BiT luciferase tag, human, UniProt P06400 379-928, looked up, part only)
# chain, part: B1 chain, part with V110A, V276M
# B9: LB-Rb (379-928) I724N (protein, part only; not given: Large BiT luciferase tag, human, UniProt P06400 379-928, looked up, part only)
# chain, part: B1 chain, part with V110A, I346N
# B10: LB-Rb (379-928) R798Q (protein, part only; not given: Large BiT luciferase tag, human, UniProt P06400 379-928, looked up, part only)
# chain, part: B1 chain, part with V110A, R420Q
# B11: LB-Rb (379-928) R661W (protein, part only; not given: Large BiT luciferase tag, human, UniProt P06400 379-928, looked up, part only)
# chain, part: B1 chain, part with V110A, R283W
# Biological target: E2F1-SB, DP1 (E2F1 fragment with C-terminal Small BiT, co-expressed with Dp-1) (human) (UniProt Q01094)
# Assay: NanoBiT split-luciferase complementation, cells stably expressing E2F1-SB and Dp-1; relative to WT LB-Rb
# Chain of E2F1-SB, DP1 (E2F1 fragment with C-terminal Small BiT, co-expressed with Dp-1) (human) (Q01094 whole entry, chain 1 of 2, the tested form may be a part): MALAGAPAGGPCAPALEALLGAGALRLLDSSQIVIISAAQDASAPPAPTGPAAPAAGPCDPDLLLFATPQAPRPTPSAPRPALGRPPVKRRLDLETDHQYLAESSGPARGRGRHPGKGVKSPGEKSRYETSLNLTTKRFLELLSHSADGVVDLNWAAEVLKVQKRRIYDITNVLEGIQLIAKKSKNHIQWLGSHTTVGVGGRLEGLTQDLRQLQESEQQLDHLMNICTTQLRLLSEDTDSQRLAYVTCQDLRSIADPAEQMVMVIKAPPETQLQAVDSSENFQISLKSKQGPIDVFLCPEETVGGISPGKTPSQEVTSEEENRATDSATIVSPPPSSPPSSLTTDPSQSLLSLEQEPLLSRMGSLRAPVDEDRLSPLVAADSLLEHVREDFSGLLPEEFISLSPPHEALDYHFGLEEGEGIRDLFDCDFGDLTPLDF
# Chain of E2F1-SB, DP1 (E2F1 fragment with C-terminal Small BiT, co-expressed with Dp-1) (human) (Q14186 whole entry, chain 2 of 2, further chain, the tested form may be a part): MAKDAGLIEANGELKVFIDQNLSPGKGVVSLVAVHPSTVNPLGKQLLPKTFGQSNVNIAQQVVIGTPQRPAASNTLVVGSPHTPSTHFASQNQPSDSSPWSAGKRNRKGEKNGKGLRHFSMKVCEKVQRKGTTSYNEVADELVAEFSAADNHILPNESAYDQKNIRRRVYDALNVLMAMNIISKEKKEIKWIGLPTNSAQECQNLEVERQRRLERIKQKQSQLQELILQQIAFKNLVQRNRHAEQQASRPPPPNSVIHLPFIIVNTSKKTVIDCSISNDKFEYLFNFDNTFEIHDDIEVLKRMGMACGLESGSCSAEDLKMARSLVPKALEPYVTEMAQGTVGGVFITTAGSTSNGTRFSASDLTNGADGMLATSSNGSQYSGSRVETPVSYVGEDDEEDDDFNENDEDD
row,Molecule,% (/wt) luciferase activity
1,"LB-Rb (379-928) I703del35, in-frame deletion mutant (from UniProt P06400 379-702; P06400 738-928)",8.6 % (/wt)
2,"LB-Rb (379-928) R661del1, out-of-frame deletion mutant (from UniProt P06400 379-660)",0.8 % (/wt)
3,LB-Rb (379-928) R798W (from UniProt P06400 379-928),120 % (/wt)
4,B1,51 % (/wt)
5,B2,79 % (/wt)
6,B3,6.4 % (/wt)
7,B4,5.5 % (/wt)
8,B5,47 % (/wt)
9,B6,5 % (/wt)
10,B7,124 % (/wt)
11,B8,132 % (/wt)
12,B9,7.4 % (/wt)
13,B10,92 % (/wt)
14,B11,5.2 % (/wt)
